Measurements from publication PMC11357992, “Non-invasive mapping of systemic neutrophil dynamics upon cardiovascular injury” (Nature Cardiovascular Research, 2023).
Several values for one entry are separate records, joined by “and”; a condition that tells them apart may be missing. Identical values can stand only once. Where no end group is shown, it is not given here. Side-chain parts run from the residue outwards. rhodamine‑labelled PEGylated perfluoro‑15‑crown‑5 ether nanoemulsion = not defined here; carboxyfluorescein = N-terminal fluorescence label (CF)

Legend:
[1] = Cryo-transmission electron microscopy of PFCs (diameter, liposomes); type: physicochemical; design: key: % of PFCs per 25 nm diameter class in cryo-TEM images; settings: cryo-TEM size distribution; panel C raw data, single replicates #1-#3
Experimental: PFCs were diluted with sample buffer to minimize particle aggregation and therefore enable proper size measurements, which were carried out as previously described.
Extended Data Fig. 8 Physicochemical properties and cellular uptake of ^hNPPFCs. a, Cellular uptake of ^hNPPFCs by human monocyte subsets and neutrophils: Human immune cells isolated from the blood of healthy volunteers were incubated with ^hNPPFCs. Subsequently, cells were stained with CD11b, CD14 and CD16 to differentiate between neutrophils (red), classical monocytes (gray) and non-classical monocytes (blue) and the cells were analyzed by flow cytometry. The cellular uptake of ^hNPPFCs was determined under unstimulated conditions (top) and after treatment with 1 µg/ml LPS (bottom). b, Physicochemical properties of the generated nanotracers: Characterization of size, size distribution and ζ potential of ^MalPFCs and targeting PFCs (^hNPPFCs, ^ConPFCs) by dynamic light scattering (DLS). The rhodamine fluorescence signal of the PCS was determined by IVIS imaging and the ^19F content by ^19F MRI. c-e, Cryo transmission electron microscopy of the generated nanotracers: c, Cryo transmission electron microscopy (cryo-TEM) of ^hNPPFCs and ^ConPFCs. Graphs: The diameter of the PFCs was determined manually from three images categorized into 25 nm groups. […] Data are derived from three images for ^hNPPFCs and ^ConPFCs each. d, Box plot (box and whiskers; min to max) of the diameter of ^ConPFCs/^hNPPFCs calculated from cryo-TEM images. e, Relative amount of liposomes (%) in individual cryo-TEM images. The number of PFCs and liposomes was manually determined (n = 4/5 images). Red arrows in the cryo-TEM images indicate liposomes. Data are mean values ± SD of n = 5-6 (a), n = 3-6 (b), n = 3 (c), n = 3 (d) and n = 6 (e) independent experiments; *** = p < 0.001, verified by one-way ANOVA (a). Source data

[2] = tested on: neutrophils, monocytes and lymphocytes from STEMI blood samples; assay: Uptake of hNPPFCs/ConPFCs by immune cells from patients with STEMI, flow cytometry; type: cell-based, human
Experimental: In total, blood samples from 17 patients with STEMI were used (5 female, 12 male; aged 66.9 ± 13.6 years; troponin T, 3,398 ± 3,520 ng l^−1; creatine kinase, 933.4 ± 685.8 U l^−1; lactate dehydrogenase, 547.8 ± 259.9 U l^−1). Samples were analyzed 24 h after MI. Samples from the oral cavity of patients with pericoronitis (n = 6; 4 female, 2 male; 34.1 ± 21.7 years) and explanted human hearts (n = 3; 1 female, 2 male; 41.6 ± 18.2 years) were processed directly after surgery.
Blood was collected from the vena brachialis, and erythrocytes were lysed as described above. After 10 min of incubation, samples were centrifuged at 350g for 10 min at 20 °C. For isolation of a purified neutrophil fraction, density gradient centrifugation was performed. Five milliliters of Ficoll 1.077 (Sigma-Aldrich) was layered on 5 ml Ficoll 1.119 (Sigma-Aldrich), and 20 ml of whole blood diluted 1:2 with PBS was carefully layered on the Ficoll 1.077. Samples were centrifuged at 350g for 20 min with low acceleration and brake. The neutrophil layer was isolated by careful aspiration and washed with PBS. Isolated cells were resuspended in MACS buffer.
A total of 1 × 10^6 cells were incubated with 10 µl of the emulsion over a period of 80 min at 37 °C. At distinct time points, 50 µl of the samples were transferred into 2 ml of ice-cold MACS buffer and analyzed for rhodamine fluorescence by flow cytometry.

murine neutrophils = assay: 19F MRI of isolated murine neutrophils incubated with mNPPFCs/ConPFCs; type: cell-based, mouse; settings: 4 × 10^6 bone marrow neutrophils incubated 3 h at 37 °C with 50 µl PFCs; individual experiments
Experimental: A total of 4 × 10^6 neutrophils isolated from bone marrow with the EasySep Mouse Neutrophil Enrichment Kit (Stemcell Technologies) were resuspended in 1 ml DMEM and incubated for 3 h with 50 µl ^mNPPFCs or ^ConPFCs at 37 °C. Afterward, cells were washed three times with PBS, fixed with PFA, pelleted by centrifugation and analyzed by ^1H/^19F MRI.
Extended Data Fig. 2 Specific targeting of neutrophils by ^mNPPFCs. a, Flow cytometric analysis of murine blood leukocytes incubated with ^mNPPFCs over 80 min illustrating their predominant uptake by neutrophils (red) as compared to monocytes (blue) and lymphocytes (gray). b, To further validate specificity, binding of CD177 mAb as well as incorporation of ^mNPPFCs under basal and LPS-stimulated conditions were determined. Almost no binding/uptake into classical or non-classical monocytes as well as macrophages or eosinophils could be detected. […] Subsequently, cells were analyzed by ^1H/^19F MRI. Left: ^1H/^19F MRI of centrifugation tubes with neutrophils treated with ^mNPPFCs (lower panel) or ^ConPFCs (upper panel). […] Quantification of ^19F signals (4th column) clearly indicate substantial stronger ^19F uptake in ^mNPPFC-treated neutrophils (red) compared to cells incubated with ^ConPFCs (gray); a.u. = arbitrary units. […]

bone marrow neutrophils = assay: In situ labeling of bone marrow neutrophils and tracking after MI, 1H/19F MRI of bone marrow; type: in vivo, mouse; settings: Depletion of neutrophils by Ly6G Ab injection 48 and 24 h prior to mNPPFC injection; 24 h after injection; individual experiments

| Substance | share of particles in size class 0-25 [1] | share of particles in size class 25-50 [1] | share of particles in size class 50-75 [1] | share of particles in size class 75-100 [1] | share of particles in size class 100-125 [1] | share of particles in size class 125-150 [1] | share of particles in size class 150-175 [1] | share of particles in size class 175-200 [1] | uptake by neutrophils, STEMI - hNPPFCs, raw data ([2]; STEMI patients, time 0, single samples #1-#5) | cellular uptake by neutrophils from patients with STEMI versus healthy volunteers ([2]; blood obtained within the first 24 h after MI, flow cytometry and 19F MRI) | 19F signal of neutrophil cell pellet (19F MRI) (murine neutrophils) | 19F signal within the femur and tibia (bone marrow) (bone marrow neutrophils) |
| --- | --- | --- | --- | --- | --- | --- | --- | --- | --- | --- | --- | --- |
| hNPPFCs: PEGylated rhodamine-labeled perfluorocarbon nanoemulsion coupled with human neutrophil-specific peptide hNP (carboxyfluorescein-DLVTSKLQVGGGC; also: C-terminal Cys coupled via maleimide-PEG2000-DSPE to rhodamine-labelled perfluorocarbon nanoemulsion) | 0 | 26.2295 and 23.5714 and 28.5714 | 45.9016 and 51.4286 and 42.0635 | 21.3115 and 20 and 23.8095 | 6.557 and 5 and 5.556 | 0 | 0 | 0 | 84.1 and 69.4 and 87.5 and 76.7 and 84.9 | substantially stronger cellular uptake |  |  |
| mNPPFCs: PEGylated rhodamine-labeled perfluoro-15-crown-5 ether nanoemulsion (maleimide PFCs) coupled with murine neutrophil-specific peptide mNP (carboxyfluorescein-DFYKPMPNLRITGGGC([maleimide‑PEG2000‑DSPE-rhodamine‑labelled PEGylated perfluoro‑15‑crown‑5 ether nanoemulsion]); reading uncertain; also: printed as DFYKPMPNLRIT-GGG-C) |  |  |  |  |  |  |  |  |  |  | 349357 a.u. and 181876 a.u. and 297311 a.u. and 383564 a.u. and 306579 a.u. | 519273 and 821555 and 523902 and 983614 and 347032 |
